# According to patent US20220073643A1 (NANJING GENSCRIPT BIOTECH, published 2022):
# Numbering of substitutions follows the chain as printed.
# B1: 407D8G1 (antibody, V domains shown)
# VH: DVQLVESGGGLVQPGGSRKLSCAASGFTFSGFGMHWIRQTPEKGLEWVAYISSGSRPIYYADTVQGRFTISRDNPKNTLFLQMTSLRSEDTAMYFCARFYYGNSFDHWGQGTLVTVSS
# VL: DIVMTQSPSFLTVTAGEKVTMSCKSSQSLLNSGNQKNYLTWYQQKPGQPPKLLIYWASTRESGVPDRFTGSGSGTDFTLTISSVQAEDLALYYCQNAYSFPLTFGAGTKLELK
# B2: 407E11H8 (antibody, V domains shown)
# VH: B1 VH with G31D, Q65K, A97V, Y101F, S118A
# VL: B1 VL with S22T, K24R, S28N, Q35L, Y55S, A86P
# B3: 407H12E6 (antibody, V domains shown)
# VH: B1 VH with F29V, G31S, I37V, T40A, R56S, Q65K, M93I, S118A
# VL: B1 VL with F10S, A15T, P49S, A86T, L91V, Y93F, A97N, S99F
# B4: 409D1A7 (antibody, V domains shown)
# VH: B1 VH with Q65K, Q82H, S118A
# VL: B1 VL with S22N, K36R, K113N
# B5: 409G10G6 (antibody, V domains shown)
# VH: B1 VH with G54D, Q65K, A97G, S118A
# VL: B1 VL with M21L, K24R, K36R, L89R, A106T, K113R
# B6: 410A9A9 (antibody, V domains shown)
# VH: B1 VH with G31S, I37V, T40A, R56S, Q65K, R98T, D106A, H107Y, S118A
# VL: B1 VL with F10S, S28T, P46S, L91V, F100Y, L102V, A106S, L110V
# B7: 410D9G2 (antibody, V domains shown)
# VH: B1 VH
# VL: B1 VL
# B8: 410H6H3 (antibody, V domains shown)
# VH: DVLLVESGGGLVQPGGSRKLSCAASGFTFSSSGMHWVRQAPEKGLEWVAYISSGSNTIYYADTLKGRFTISRDNPKNTLFLQMTSLRSEDTAMYYCARIYYGNSFVYWGQGTLVTVSA
# VL: B1 VL with F10S, T20I, L52M, T69R, L91V, A97N, S99Y, F100Y, A106T, E111A
# B9: 201F4H6 (antibody, V domains shown)
# VH: QVQLKESGPGLVAPSQSLSITCTVSGFSLTSYGVSWVRQPPGKGLECLGVIWAGGNTNYNSALMSRLSISKDKSKSQVFLKMNSLQTDDTAMYYCARVYYGNAMDYWGQGTSVTVSS
# VL: B1 VL with F10S, N37S, K45R, L91V, Y93F, A97V, S99F, L102F, A106S, L112T
# B10: 411A6E3 (antibody, V domains shown)
# VH: B1 VH with G31D, Q65K, A97V, Y101F, S118A
# VL: B1 VL with S22T, K24R, S28N, Q35L, Y55S, A86P
# B11: 411B4G4 (antibody, V domains shown)
# VH: B1 VH with M34L, Q65K, S118A
# VL: B1 VL with K24R, K36R
# B12: 411G12G1 (antibody, V domains shown)
# VH: B1 VH with T40A, Q65K, S118A
# VL: B1 VL with L91V, A97D
# B13: 411G3E10 (antibody, V domains shown)
# VH: B1 VH with Q65K, S118A
# VL: B1 VL with S22N, K24R
# B14: 412B6E4 (antibody, V domains shown)
# VH: DVQLVESGGGLVQPGGSRKLSCAASGFTFSSFGVHWVRQAPEKGLEWVAYISSGSSTIYYAHSVKGRFTISRDNPKNTLFLQMTSLGSEDTATYYCARFYYGNSFAYWGQGTLVTVSA
# VL: B1 VL with F10S, L52M, L91V, S99T, F100Y, K109R
# B15: 413B1C9 (antibody, V domains shown)
# VH: B1 VH with G31S, I37V, T40A, R56S, Q65K, S118A
# VL: B1 VL with F10S, A15T, T20S, L30F, S32R, N37S, L91V, A97N, S99I, F100Y
# B16: 413C12F8 (antibody, V domains shown)
# VH: B1 VH with M34V, S52G, Q65K, S118A
# VL: B1 VL with S22N, K24R, K45R
# B17: 414A5F7 (antibody, V domains shown)
# VH: B8 VH with L3Q, S32F, N56S, T57P, L64V, Y95F, V106A
# VL: B1 VL with F10S, T20A, S28T, I54L, L91V, S99Y, F100Y, A106S
# B18: 414H6G2 (antibody, V domains shown)
# VH: B1 VH with P41A, S118A
# VL: B1 VL
# B19: 203A6C9 (antibody, V domains shown)
# VH: QVQLKQSGPGLVQPSQSLSITCTVSGFSLTRYGVHWVRQSPGKGLEWLGVIWSGGNTDYNAAFISRLNIRKDNSKSQVFFKMNSLKPNDTAIYYCARAAYFGNSFDYWGQGTTLTVSS
# VL: B1 VL with F10S, T12P, E61D, L91V, A97N, S99I, F100Y
# B20: 416F12F3 (antibody, V domains shown)
# VH: B14 VH with V34M, T93M
# VL: B1 VL with F10S, M21L, L52M, L91V, S99T, F100Y, K109R
# B21: 417A6F11 (antibody, V domains shown)
# VH: EVQLQQSGPELVKPGASMKISCKASGYSFTGYTMNWVKQSHGKNLEWIGLINPYNGGTSYNQKFKGKATLTVDKSSSTAYMELLSLTSEDSAVYYCARGDYWGQGTTLTVSS
# VL: DIVMTQSPSSLTVTAGEKVTMSCKSSQSLLNSGNQKNYLTWYQQKPGQPPKLLIYWASTRESGVPDRFTGSGSGTDFTLTISSVQAEDLAVYYCQNDYSYPTFGAGTKLELK
# B22: 418B8B10 (antibody, V domains shown)
# VH: B1 VH with G31S, I37V, T40A, R56S, A61T, Q65K, S118A
# VL: B1 VL with F10S, T20S, L30F, S32R, N37S, K45R, L91V, A97N, S99I, F100Y
# B23: 418D2F9 (antibody, V domains shown)
# VH: B8 VH with L3Q, S32F, S52N, S53T, N56S, L64V
# VL: B1 VL with F10S, L91V, A97D, F100Y
# B24: 418G6A5 (antibody, V domains shown)
# VH: B8 VH with L3Q, A23V, S32F, N56S, T57P, I58M, L64V, Y95F, V106A
# VL: B1 VL with F10S, L91V, F100Y
# B25: 419A10D4 (antibody, V domains shown)
# VH: B1 VH with Q65K, S118A
# VL: B1 VL with K36R, I81V
# B26: 419A5F3 (antibody, V domains shown)
# VH: B1 VH with G54D, Q65K, A97G, S118A
# VL: B1 VL with M21L, K24R, K36R, L89R, A106T, K113R
# B27: 419B5G9 (antibody, V domains shown)
# VH: DVQLVESGGGLVQPGGSRKLSCAASGFTFSTFGMHWVRQAPEKGLEWVAYISGGSTTIFYADTVKGRFTISRDNPKNTLFLQMTSVRSEDTAMYYCARFYYGNSFAYWGPGTLVTVST
# VL: B1 VL with F10S, L52M, L91V, F100Y
# B28: 420D5H5 (antibody, V domains shown)
# VH: B1 VH with F29L, A61V, Q65E
# VL: B1 VL with S82R, S83G
# B29: 420F12G8 (antibody, V domains shown)
# VH: B1 VH with T28A, Q65K, A97V, S118A
# VL: B1 VL with S22T, K24R, S28N, Y55S, A86P, L102F
# B30: 203A6D5 (antibody, V domains shown)
# VH: B19 VH
# VL: B1 VL with F10S, T12P, E61D, L91V, A97N, S99I, F100Y
# Molecular target: human Claudin18.2 (human)
# Experiment: cell-based or functional assay
Binder,CDC % Relative activity [%],CDC EC50 [µg/mL]
B1,849,0.308
B2,60.4,4.32
B3,143,1.83
B4,33.5,7.78
B5,55.6,4.7
B6,300,0.872
B7,87.9,2.97
B8,755,0.346
B9,135,1.42
B10,109,2.5
B11,68.3,3.98
B12,28.5,9.56
B13,82.2,3.31
B14,577,0.472
B15,10.4,26.3
B16,70.9,3.84
B17,594,0.458
B18,678,0.402
B19,600,0.319
B20,220,0.784
B21,440,0.392
B22,30.8,5.6
B23,236,0.73
B24,207,0.83
B25,91.5,1.88
B26,61.7,2.79
B27,349,0.494
B28,78.3,2.2
B29,52.6,3.27
B30,571,0.336
